Measurements reported in article PMC3763551, “The tRNA recognition mechanism of the minimalist SPOUT methyltransferase, TrmL” (Nucleic Acids Research, 2013).
Numbering of substitutions follows the chain as printed. Numbers in names are those of the source.

How the values were obtained:
EcTrmL [1] = target: T1, EcTrmL (Escherichia coli, UniProt P0AGJ7, R129E); assay: isothermal titration calorimetry, one-site model; type: binding
T1 construct: gene trmL

EcTrmL [2] = target: T2, EcTrmL (Escherichia coli, UniProt P0AGJ7, K81E); assay: isothermal titration calorimetry, one-site model; type: binding
T2 construct: gene trmL

EcTrmL [3] = target: T3, EcTrmL (Escherichia coli, UniProt P0AGJ7, R46E); assay: isothermal titration calorimetry, one-site model; type: binding
T3 construct: gene trmL

EcTrmL [4] = target: T4, EcTrmL (Escherichia coli, UniProt P0AGJ7, R104E); assay: isothermal titration calorimetry, one-site model; type: binding
T4 construct: gene trmL

EcTrmL [5] = target: T5, EcTrmL (Escherichia coli, UniProt P0AGJ7, R45E); assay: isothermal titration calorimetry, one-site model; type: binding
T5 construct: gene trmL

EcTrmL [6] = target: T6, EcTrmL (Escherichia coli, UniProt P0AGJ7, R43E); assay: isothermal titration calorimetry, one-site model; type: binding
T6 construct: gene trmL

EcTrmL [7] = target: T7, EcTrmL (Escherichia coli, UniProt P0AGJ7, R20E); assay: isothermal titration calorimetry, one-site model; type: binding
T7 construct: gene trmL

EcTrmL [8] = target: T8, EcTrmL (Escherichia coli, UniProt P0AGJ7, R59E); assay: isothermal titration calorimetry, one-site model; type: binding
T8 construct: gene trmL

EcTrmL [9] = target: T9, EcTrmL (Escherichia coli, UniProt P0AGJ7, K42E); assay: isothermal titration calorimetry, one-site model; type: binding
T9 construct: gene trmL

[10] = target: the molecule itself; assay: SEC; analytical gel filtration, Superdex 75 (10/30), 20 mM Tris-HCl pH 7.5, 100 mM NaCl, 5 mM MgCl2, 5 mM beta-Me, 300 ul injected, 0.5 ml/min, against standard proteins
[11] = target: the molecule itself; assay: not stated; oligomeric state of the purified Glu single mutants in solution; the method is not named for this statement

T9 sequence (P0AGJ7 whole entry K42E): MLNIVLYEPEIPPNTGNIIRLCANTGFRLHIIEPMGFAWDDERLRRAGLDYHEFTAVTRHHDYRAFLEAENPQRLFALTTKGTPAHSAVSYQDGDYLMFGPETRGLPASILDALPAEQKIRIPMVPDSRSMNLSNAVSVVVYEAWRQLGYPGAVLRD
T5 sequence (P0AGJ7 whole entry R45E): as the sequence (P0AGJ7 whole entry K42E) above, with E42K, R45E counted along it
T7 sequence (P0AGJ7 whole entry R20E): as the sequence (P0AGJ7 whole entry K42E) above, with R20E, E42K counted along it
T4 sequence (P0AGJ7 whole entry R104E): as the sequence (P0AGJ7 whole entry K42E) above, with E42K, R104E counted along it
T2 sequence (P0AGJ7 whole entry K81E): as the sequence (P0AGJ7 whole entry K42E) above, with E42K, K81E counted along it
T8 sequence (P0AGJ7 whole entry R59E): as the sequence (P0AGJ7 whole entry K42E) above, with E42K, R59E counted along it
T3 sequence (P0AGJ7 whole entry R46E): as the sequence (P0AGJ7 whole entry K42E) above, with E42K, R46E counted along it
T1 sequence (P0AGJ7 whole entry R129E): as the sequence (P0AGJ7 whole entry K42E) above, with E42K, R129E counted along it
T6 sequence (P0AGJ7 whole entry R43E): as the sequence (P0AGJ7 whole entry K42E) above, with E42K, R43E counted along it

Molecule: Nc1ncnc2c1ncn2[C@@H]1O[C@H](CSCC[C@H](N)C(=O)O)[C@@H](O)[C@H]1O [SAH, S-adenosyl-homocysteine]
- Kd (EcTrmL [1]): 19 µM
- Kd (EcTrmL [2]): 30 µM
- Kd (EcTrmL [3]): 29 µM
- Kd (EcTrmL [4]): 33 µM
- Kd (EcTrmL [5]): 29 µM
- Kd (EcTrmL [6]): 39 µM
- Kd (EcTrmL [7]): 45 µM
- Kd (EcTrmL [8]): 27 µM
- Kd (EcTrmL [9]): 20 µM

B1: tRNA (Um34/Cm34) methyltransferase TrmL from E. coli, wild type (enzyme, UniProt P0AGJ7 1-157, looked up)
chain: MLNIVLYEPEIPPNTGNIIRLCANTGFRLHIIEPMGFAWDDKRLRRAGLDYHEFTAVTRHHDYRAFLEAENPQRLFALTTKGTPAHSAVSYQDGDYLMFGPETRGLPASILDALPAEQKIRIPMVPDSRSMNLSNAVSVVVYEAWRQLGYPGAVLRD
notes: TrmL, tRNA (Um34/Cm34) methyltransferase, E. coli; gene amplified from the genome of E. coli MT102; 157 amino acids as printed; also called EcTrmL; Yibk; source: E. coli BL21 (DE3), pET30b, purified (Ni-NTA, Superdex 75 gel filtration)
- stoichiometry N [10]: 2

B2: EcTrmL-R46E (enzyme, E. coli, UniProt P0AGJ7 1-157, looked up)
chain: B1 chain with R46E
notes: TrmL, E. coli, 157 amino acids, with R46E; source: E. coli BL21 (DE3), pET30b, purified (Ni-NTA, Superdex 75 gel filtration)
- stoichiometry N [11]: 2

B3: EcTrmL-K81E (enzyme, E. coli, UniProt P0AGJ7 1-157, looked up)
chain: B1 chain with K81E
notes: TrmL, E. coli, 157 amino acids, with K81E; source: E. coli BL21 (DE3), pET30b, purified (Ni-NTA, Superdex 75 gel filtration)
- stoichiometry N [11]: 2

B4: EcTrmL-R20E (enzyme, E. coli, UniProt P0AGJ7 1-157, looked up)
chain: B1 chain with R20E
notes: TrmL, E. coli, 157 amino acids, with R20E; source: E. coli BL21 (DE3), pET30b, purified (Ni-NTA, Superdex 75 gel filtration)
- stoichiometry N [11]: 2

B5: EcTrmL-R43E (enzyme, E. coli, UniProt P0AGJ7 1-157, looked up)
chain: B1 chain with R43E
notes: TrmL, E. coli, 157 amino acids, with R43E; source: E. coli BL21 (DE3), pET30b, purified (Ni-NTA, Superdex 75 gel filtration)
- stoichiometry N [11]: 2

B6: EcTrmL-R45E (enzyme, E. coli, UniProt P0AGJ7 1-157, looked up)
chain: B1 chain with R45E
notes: TrmL, E. coli, 157 amino acids, with R45E; source: E. coli BL21 (DE3), pET30b, purified (Ni-NTA, Superdex 75 gel filtration)
- stoichiometry N [11]: 2

B7: EcTrmL-R28E (enzyme, E. coli, UniProt P0AGJ7 1-157, looked up)
chain: B1 chain with R28E
notes: TrmL, E. coli, 157 amino acids, with R28E; source: E. coli BL21 (DE3), pET30b, purified (Ni-NTA, Superdex 75 gel filtration)
- stoichiometry N [11]: 2

B8: EcTrmL-R104E (enzyme, E. coli, UniProt P0AGJ7 1-157, looked up)
chain: B1 chain with R104E
notes: TrmL, E. coli, 157 amino acids, with R104E; source: E. coli BL21 (DE3), pET30b, purified (Ni-NTA, Superdex 75 gel filtration)
- stoichiometry N [11]: 2

B9: EcTrmL-R59E (enzyme, E. coli, UniProt P0AGJ7 1-157, looked up)
chain: B1 chain with R59E
notes: TrmL, E. coli, 157 amino acids, with R59E; source: E. coli BL21 (DE3), pET30b, purified (Ni-NTA, Superdex 75 gel filtration)
- stoichiometry N [11]: 2

B10: EcTrmL-K42E (enzyme, E. coli, UniProt P0AGJ7 1-157, looked up)
chain: B1 chain with K42E
notes: TrmL, E. coli, 157 amino acids, with K42E; source: E. coli BL21 (DE3), pET30b, purified (Ni-NTA, Superdex 75 gel filtration)
- stoichiometry N [11]: 2

B11: EcTrmL-R64E (enzyme, E. coli, UniProt P0AGJ7 1-157, looked up)
chain: B1 chain with R64E
notes: TrmL, E. coli, 157 amino acids, with R64E; source: E. coli BL21 (DE3), pET30b, purified (Ni-NTA, Superdex 75 gel filtration)
- stoichiometry N [11]: 2

B12: EcTrmL-R74E (enzyme, E. coli, UniProt P0AGJ7 1-157, looked up)
chain: B1 chain with R74E
notes: TrmL, E. coli, 157 amino acids, with R74E; source: E. coli BL21 (DE3), pET30b, purified (Ni-NTA, Superdex 75 gel filtration)
- stoichiometry N [11]: 2

B13: EcTrmL-R129E (enzyme, E. coli, UniProt P0AGJ7 1-157, looked up)
chain: B1 chain with R129E
notes: TrmL, E. coli, 157 amino acids, with R129E; source: E. coli BL21 (DE3), pET30b, purified (Ni-NTA, Superdex 75 gel filtration)
- stoichiometry N [11]: 2
